B1: DGL442 (bispecific antibody, human IgG1, lambda)
heavy 1: not shown
heavy 2: QVHLQESGPGLVKPSETLSLTCTVSGGSISYYYWNWIRQPPGKGLEWIASIYNSGNINYNPSLKSRVTISVDTSKNQFSLKLTSVTAADTAVYYCARGGYSYGYFDNWGQGILVTVSSASTKGPSVFPLAPSSKSTSGGTAALGCLVKDYFPEPVTVSWNSGALTSGVHTFPAVLQSSGLYSLSSVVTVPSSSLGTQTYICNVNHKPSNTKVDKKVEPKSCDKTHTCPPCPAPEAAGAPSVFLFPPKPKDTLMISRTPEVTCVVVDVSHEDPEVKFNWYVDGVEVHNAKTKPREEQYNSTYRVVSVLTVLHQDWLNGKEYKCKVSNKALPAPIEKTISKAKGQPREPQVCTLPPSRDELTKNQVSLSCAVKGFYPSDIAVEWESNGQPENNYKTTPPVLDSDGSFFLVSKLTVDKSRWQQGNVFSCSVMHEALHNRFTQKSLSLSPG
light: SYELTQPPSVSVSPGQTASITCSGRELGNKYAYWYQQKPGQSPVLVIYEDYKRPSGIPERFSGSNSGNTATLTISGTQAMDEADYYCQAWDSSTVIFGGGTKLTVLGQPKAAPSVTLFPPSSEELQANKATLVCLISDFYPGAVTVAWKADSSPVKAGVETTTPSKQSNNKYAASSYLSLTPEQWKSHRSYSCQVTHEGSTVEKTVAPTECS
B2: DGL604 (bispecific antibody, V domains shown)
V domain 1: QVQLVESGGGLVQAGGSLRLSCAASRSISSFNEMAWYRQAPGEQRELVATIVSTVGFTNYADSVKGRFTISRDNAKNTVYLQMNSLKAEDTAVYYCNARRISTDYWGQGTQVTVEP
V domain 2: QLQLVESGGGLVQAGGSLRLSCAASGRTFGIHGMGWFRQAPGKEREFAAAIRWSDGTTIHADSVKGRLTISRDNAKNTVYLQMNSLKPEDTAVYYCAATSNPQFGRNWYTVAAGVEYGYWGQGTQVTVEP
B3: DGL427 (bispecific antibody, human IgG1, kappa)
heavy 1: not shown
heavy 2: EVLLVESGGGLVKPGGSLRLSCAASGFTFSSYSMNWVRQAPGKGLEWVSSISSSSDYIHYADSVRGRFTISRDNAKNSLYLQMNSLRAEDTAVYYCARSELGFDYWGQGTLVTVSSASTKGPSVFPLAPSSKSTSGGTAALGCLVKDYFPEPVTVSWNSGALTSGVHTFPAVLQSSGLYSLSSVVTVPSSSLGTQTYICNVNHKPSNTKVDKKVEPKSCDKTHTCPPCPAPEAAGAPSVFLFPPKPKDTLMISRTPEVTCVVVDVSHEDPEVKFNWYVDGVEVHNAKTKPREEQYNSTYRVVSVLTVLHQDWLNGKEYKCKVSNKALPAPIEKTISKAKGQPREPQVCTLPPSRDELTKNQVSLSCAVKGFYPSDIAVEWESNGQPENNYKTTPPVLDSDGSFFLVSKLTVDKSRWQQGNVFSCSVMHEALHNRFTQKSLSLSPG
light: DIQMTQSPSSVSASVGDRVTITCRASQGISIWLAWYQQKPGKAPKPLIYAASSLQSGVPSRFSGSGSGTDFTLTISSLQPEDFATYYCQQANSFPLTFGGGTKVEIKRTVAAPSVFIFPPSDEQLKSGTASVVCLLNNFYPREAKVQWKVDNALQSGNSQESVTEQDSKDSTYSLSSTLTLSKADYEKHKVYACEVTHQGLSSPVTKSFNRGEC
B4: DGL415 (bispecific antibody, human IgG1, kappa)
heavy 1: not shown
heavy 2: QVQLVESGGGLVQAGGSLRLSCAASGRTFSRYRMGWFRQAPGKEREFVAAITKSGATTYDADSVKGRFTISRDNAKNTLYLQMNSLKPEDTAVYYCAASYHSNWWPKNADEYAYWGQGTQVTVEPKSSDKTHTCPPCPAPEAAGAPSVFLFPPKPKDTLMISRTPEVTCVVVDVSHEDPEVKFNWYVDGVEVHNAKTKPREEQYNSTYRVVSVLTVLHQDWLNGKEYKCKVSNKALPAPIEKTISKAKGQPREPQVCTLPPSRDELTKNQVSLSCAVKGFYPSDIAVEWESNGQPENNYKTTPPVLDSDGSFFLVSKLTVDKSRWQQGNVFSCSVMHEALHNRFTQKSLSLSPG
light: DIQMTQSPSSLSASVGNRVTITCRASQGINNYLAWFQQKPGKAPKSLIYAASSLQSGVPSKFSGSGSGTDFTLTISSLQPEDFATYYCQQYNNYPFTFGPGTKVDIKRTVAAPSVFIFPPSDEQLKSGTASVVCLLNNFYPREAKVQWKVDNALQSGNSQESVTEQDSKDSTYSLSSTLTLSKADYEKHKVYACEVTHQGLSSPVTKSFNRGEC
B5: DGL525 (bispecific antibody, V domains shown)
V domain 1: EVQLVESGGGLVQPGGSLRLFCAASRSIFNINIMGWYRQAPGKQREWLASITSGGSTFYADSVKDRFTISRDSVKNTVYLQMNSLKPEDTAAYYCNRYRSVPLNTVYPWGQGTLVTVEP
V domain 2: QVQLVESGGGLVQAGGSLRLSCAASGRTFSSYAMGWFRQAPGKEREFVSAISWSGLSTYYVESVQGRFTISRDNAKNTVYLQMNSLKPEDTAVYYCAASRIYTNYVARSYEYDDWGQGTQVTVEP
B6: DGL453 (bispecific antibody, V domains shown)
V domain 1: QVQLQESGGALVQPGGSLRLSCVVSGFTSDYFAIGWFRQAPGKEREGVSCIGSSDGSTIYSDSVKGRFTISRDNAKNTVYLQMNSLKPEDTGVYYCALDRGRRTIIGYACYATMKYWGKGTPVTVEP
V domain 2: QVQLVESGGGLVQPGGSLRLSCAASGFTFSNYAMSWIRQGPERGFEWVSRINSGGGTTSYADSVKGRFTISRDNAKNTLYLQMNSLKPEDTAVYYCAKHSHPDYSSNYYRPGQGTQVTVEP
B7: DGL440 (bispecific antibody, human IgG1, lambda)
heavy 1: not shown
heavy 2: QVQLVQPGAEVKKPGASVKVSCKASGYTFTGYYMHWVRQAPGQGLEWMGWINPKSGGTNYAQKFQGRVTMTRDTSISTAYMELTRLRSDDTAVYYCARDQGYGDYVLKHWGQGTLVTVSSASTKGPSVFPLAPSSKSTSGGTAALGCLVKDYFPEPVTVSWNSGALTSGVHTFPAVLQSSGLYSLSSVVTVPSSSLGTQTYICNVNHKPSNTKVDKKVEPKSCDKTHTCPPCPAPEAAGAPSVFLFPPKPKDTLMISRTPEVTCVVVDVSHEDPEVKFNWYVDGVEVHNAKTKPREEQYNSTYRVVSVLTVLHQDWLNGKEYKCKVSNKALPAPIEKTISKAKGQPREPQVCTLPPSRDELTKNQVSLSCAVKGFYPSDIAVEWESNGQPENNYKTTPPVLDSDGSFFLVSKLTVDKSRWQQGNVFSCSVMHEALHNRFTQKSLSLSPG
light: SYVLTQPPSVSVAPGQTARITCGGDNIGSKSVHWYQQKPGQAPVPVVYDDSDRPSGIPERFSGSNSGNTATLTISRVEAGDEADYYCQVWDSSSDHVVFGGGTKLTVLGQPKAAPSVTLFPPSSEELQANKATLVCLISDFYPGAVTVAWKADSSPVKAGVETTTPSKQSNNKYAASSYLSLTPEQWKSHRSYSCQVTHEGSTVEKTVAPTECS
B8: DGL443 (bispecific antibody, human IgG1, lambda)
heavy 1: not shown
heavy 2: QVTLRESGPALVKPTQTLTLTCTFSGFSLSTSGMCVSWIRQPPGKALEWLALIYWDDDKYYSTSLKTRLTISKDTSKNQVVLTMTNMDPVDTATYYCARMRRGIEAFDIWGQGTMVTVFSASTKGPSVFPLAPSSKSTSGGTAALGCLVKDYFPEPVTVSWNSGALTSGVHTFPAVLQSSGLYSLSSVVTVPSSSLGTQTYICNVNHKPSNTKVDKKVEPKSCDKTHTCPPCPAPEAAGAPSVFLFPPKPKDTLMISRTPEVTCVVVDVSHEDPEVKFNWYVDGVEVHNAKTKPREEQYNSTYRVVSVLTVLHQDWLNGKEYKCKVSNKALPAPIEKTISKAKGQPREPQVCTLPPSRDELTKNQVSLSCAVKGFYPSDIAVEWESNGQPENNYKTTPPVLDSDGSFFLVSKLTVDKSRWQQGNVFSCSVMHEALHNRFTQKSLSLSPG
light: QSVLTQPPSVSGAPGQRVTISCTGSSSNIGAGYDVHWYQQLPGTAPKLLIFGYSNRPSGVPVRFSGSKSGTSASLAITGLLAEDEADFYCQSFDISLTGWVFGGGTKLTVLGQPKAAPSVTLFPPSSEELQANKATLVCLISDFYPGAVTVAWKADSSPVKAGVETTTPSKQSNNKYAASSYLSLTPEQWKSHRSYSCQVTHEGSTVEKTVAPTECS

The target in this test is human IL-12 receptor (IL-12Rβ1 and IL-12Rβ2) on HEK-Blue IL-12 cells (human, UniProt P42701 24-662; Q99665 24-862). Description: cell-based or functional assay.
human IL-12 receptor (IL-12Rβ1 and IL-12Rβ2) on HEK-Blue IL-12 cells, sequence (Q99665 24-862, chain 2 of 2, other chains not shown): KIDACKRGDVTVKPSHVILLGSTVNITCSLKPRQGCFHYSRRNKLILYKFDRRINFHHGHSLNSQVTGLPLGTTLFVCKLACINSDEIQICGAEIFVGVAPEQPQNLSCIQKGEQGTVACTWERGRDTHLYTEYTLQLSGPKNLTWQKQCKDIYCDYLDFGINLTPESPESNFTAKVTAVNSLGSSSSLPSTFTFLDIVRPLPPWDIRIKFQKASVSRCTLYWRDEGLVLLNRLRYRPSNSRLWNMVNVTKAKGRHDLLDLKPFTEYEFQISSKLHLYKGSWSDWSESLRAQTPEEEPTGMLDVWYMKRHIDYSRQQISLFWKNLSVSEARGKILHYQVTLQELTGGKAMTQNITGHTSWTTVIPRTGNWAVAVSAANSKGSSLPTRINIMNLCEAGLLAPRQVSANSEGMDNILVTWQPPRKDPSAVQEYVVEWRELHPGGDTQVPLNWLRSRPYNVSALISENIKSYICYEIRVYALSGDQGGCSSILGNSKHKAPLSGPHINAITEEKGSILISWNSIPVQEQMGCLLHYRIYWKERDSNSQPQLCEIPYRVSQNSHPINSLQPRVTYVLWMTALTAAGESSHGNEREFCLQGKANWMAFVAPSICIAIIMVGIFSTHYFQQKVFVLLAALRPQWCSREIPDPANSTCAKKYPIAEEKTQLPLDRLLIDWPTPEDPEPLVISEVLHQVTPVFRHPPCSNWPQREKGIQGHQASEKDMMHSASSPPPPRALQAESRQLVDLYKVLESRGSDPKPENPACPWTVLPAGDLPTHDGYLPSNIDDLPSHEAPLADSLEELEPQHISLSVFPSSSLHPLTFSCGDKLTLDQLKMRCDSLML
Consider B1, for which the “Max Absorbance” value was 0.22.
With B2, the “Max Absorbance” value is 0.23.
Turning to B3, the “Max Absorbance” value worked out at 0.25.
In the case of B4, the “Max Absorbance” value was found to be 0.23.
The same measure for B5: 0.21; for B6: 0.25; for B7: 0.22.
Regarding B8, the “Max Absorbance” value turned out to be 0.24.

Values taken from patent publication US20250019450A1 (DIAGONAL THERAPEUTICS, published 2025).
